Data taken from patent publication US20030068615A1, “Polypeptides that bind HIV gp120 and related nucleic acids, antibodies, compositions, and methods of use” (priority 1999, published 2003).

Columns and labels:
[1] = tested on: HIV-1 virus strains (e.g. YU2); conditions: cited from earlier work
HIV-1LAI envelope gp120 = HIV-1LAI envelope gp120 (Human immunodeficiency virus type 1 group M subtype B, UniProt P03377); assay type: binding

Y3A: human CCR5 chemokine receptor with tyrosine 3 substituted by alanine, studied by others (cited 79% value)
percentage compared to wild-type CCR5, ADA ([1]; CCR5 alanine mutant, HIV-1 strain ADA, work of others): 79% | percentage compared to wild-type CCR5, DH123 ([1]; CCR5 alanine mutant, HIV-1 strain DH123, work of others): 42% | percentage compared to wild-type CCR5, JF-RL ([1]; CCR5 alanine mutant, HIV-1 strain JF-RL, work of others): 82% | affinity relative to a non-mutated CCR5 chemokine receptor ([1]; mutated CCR5, data extracted from the work of others): 79% | percentage of binding of mutant polypeptide compared to wild-type polypeptide, gp120 (HIV-1LAI envelope gp120; CCR5 alanine mutant peptide, radiolabeled HIV-1LAI gp120): 51.4% | ability to bind HIV-1LAI gp120 envelope protein in comparison to an equivalent wild-type peptide (HIV-1LAI envelope gp120; CCR5 mutant polypeptide): 51.4%
